No end group written: not given here.
B1: mAb006-11-IgG4 (antibody, V domains shown)
VH: QLQLQESGPGLVKPSETLSLTCTVSGGSMNINDYYWDWVRLSPGKGLEWIGAIYSSGTTYYNPSLKSRVTISVDMSKDQFSLRLSSVTAADTAVYYCVRDGPHRLYYGSGTYYNPRGGYYSYALDVWGQGTTVIV
VL: QLVLTQSPSASASLGASVKLTCTLSSGHGTYAIAWHQLRSEKGPRYLMKVNSDGSHIKGDGIPDRFSGSSSGAERYLIISSLQSEDEADYYCQTWGTGIVIFGGGTKLTVL
B2: mAb006-11-IgG3 (antibody, V domains shown)
VH: B1 VH
VL: B1 VL
B3: mAb006-11-IgG2 (antibody, V domains shown)
VH: B1 VH
VL: B1 VL
B4: mAb006-11-IgG1 (antibody, V domains shown)
VH: B1 VH
VL: B1 VL
notes: also called mAb11; mAb006-11G1

How the values were obtained:
[1] = molecular target: HBV virions (Genotype D) (Hepatitis B virus genotype D); assay: cell-based or functional assay
[2] = molecular target: T1, recombinant small-HBsAg (Hepatitis B virus); assay: QCM (Attana Cell A200), rHBsAg amine-coupled on chip, 25 C
T1 construct: also called recombinant HBsAg; rHBsAg

[3] = molecular target: T2, HBsAg genotype A (adw2) (Hepatitis B virus genotype A (adw2), UniProt P03141 175-400); assay: ELISA on HBsAg of four genotypes
T2 construct: the form coated in the ELISA is not described

[4] = molecular target: T3, HBsAg genotype B (adw) (Hepatitis B virus genotype B (adw), UniProt Q9PWW3 175-400); assay: ELISA on HBsAg of four genotypes
T3 construct: the form coated in the ELISA is not described

[5] = molecular target: T4, HBsAg genotype C (adr) (Hepatitis B virus genotype C (adr), UniProt P30019 1-226); assay: ELISA on HBsAg of four genotypes
T4 construct: the form coated in the ELISA is not described

[6] = molecular target: T5, HBsAg loop 1 linear peptide (Hepatitis B virus, not fully specified; cysteine pairing not given here); assay: direct ELISA on coated linear peptide (50 ng/well)
T5 construct: The peptide is printed with alternative residues at two positions
T5 peptide: TCTTPAQGNSMFPSC

[7] = molecular target: T6, HBsAg loop 2 linear peptide (Hepatitis B virus, not fully specified; cysteine pairing not given here); assay: direct ELISA on coated linear peptide (50 ng/well)
T6 construct: The peptide is printed with alternative residues at one position
T6 peptide: CTKPTDGNCT

Binder | EC50, in-vitro neutralization (HBeAg data) [1] [nM] | Kd [2] [nM] | binding result [3] | binding result [4] | binding result [5] | binding result [6] | binding result [7]
B1 | 0.242 |  |  |  |  |  | 
B2 | 1.05 |  |  |  |  |  | 
B3 | 1.32 |  |  |  |  |  | 
B4 | 12.6 | 22.7 | binds | binds | binds | no binding | no binding
